# Laboratory results reported in the nanobody polyreactivity screen of Harvey et al. (2022).
# Test: yeast display, Sf9 membrane polyspecificity reagent, FACS + sequencing; frameworks hold sequencing errors
# Outline: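 In a synthetic yeast display library (Saccharomyces cerevisiae BJ5465), nanobody expression was induced with galactose for 36–48 hours. FACS gates were set low and high (top ~1%) using anti-HA fluorescence for expression and streptavidin fluorescence for binding of the Sf9 membrane reagent. Each polyreactivity label is drawn from the gate of origin.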
row,Sequence,polyreactivity (PSR sort gate)
1,QVQLVESGGGLVQAGGSLRLSCAASGIIFSFYAMGWYRKAPGKERELVAAISQSGGSTYYADSVKGRFTISRDNAKNTVYLQMNSLKPEDTAVYYCAVAGWYGSEYWGQGTQVTVSS,high polyreactivity
2,QVQLVESGGGLVQAGGSLRLSCAASGIIFSFYAMGWYRQAPGKERELVAAISRSGGSTYYADSVKGRFTISRDNAKNTVYLQMNSLKPEDTAVYYCNADNGASYYYRRYDSWGQGTQVTVSS,high polyreactivity
3,QVQLVESGGGLVQAGGSLRLSCAASGIIFSGYARGWSRQAPGKERELVAVISSSGGGTYYADSVKGRFTISRDNAKNTVYLHMNSLKPEDTAVYYCAARGREAIHGYWGQGTQVTVSS,high polyreactivity
4,QVQLVESGGGLVQAGGSLRLSCAASGIIFSRYAMGWYRQAPGKERELVAAISSSGGTTYYADSVKGRFTISRDNAKNTVYLQMNSLKPEDTAVYYCYAPAFYKYKSFYAHSGYDYWGQGTQVTVSS,high polyreactivity
5,QVQLVESGGGLVQAGGSLRLSCAASGIIFSSNAMGWYRQAPGKERELVAAISRRGGSTSYADSVKGRFTISRDNAKNTVYLQINSLKPEDTAVYYCAARYVYPGEDYWGQGTQVTVSS,high polyreactivity
6,QVQLVESGGGLVQAGGSLRLSCAASGIIFSSNAMGWYRQAPGKERELVAAITRRGGSTRYADSVKGRFTISRDNAKNTVYLQMNSLKPEDTAVYYCNALTGYPYRWGISYPMDYWGQGTQVTVSS,high polyreactivity
7,QVQLVESGGGLVQAGGSLRLSCAASGIIFSSSAMGWYRQAPGKEREVVAAITSCGNTNYADSVKGRFTISRDNAKNTVYLQMNSLNPEDTAVYYCNAETSFVWLAWHPYGFGDWGQGTQVTVSS,low polyreactivity
8,QVQLVESGGGLVQAGGSLRLSCAASGIIFSTNAMGWYRQAPGKERELVAAISWDGSSTYYADSVKGRFTISRDNAKNTVYLQMNSLKPEDTAVYYCAADQSTVLDVGSWGQGTQVTVSS,low polyreactivity
9,QVQLVESGGGLVQAGGSLRLSCAASGIIFSWYAMGWYRQAPGKERELVASITASGGSTYYADSVKGRFTISRDTAKNTVSFQMHSLKPEDTAVYYCAVRYGHRSFASVYVEYDYWGQGTQVTVSS,low polyreactivity
10,QVQLVESGGGLVQAGGSLRLSCAASGIIFSYNVMGWYRQAPGKEREFVADITWNGGSTYYADSVKGRFTISRDNAKNTVYLQMNSLKPEDTAVYYCATGWPWYSNYASAYDYWGQGTQVTVSS,low polyreactivity
11,QVQLVESGGGLVQAGGSLRLSCAASGIIFSYYARGWYRQAPGKDRELVAAISSSGVSTNYADSVKGRFTISRDNAKNTVYLQMTSLKPEDTAVYYCAADYGSWSNWGYEYWGQGTQVTVSS,high polyreactivity
12,QVQLVESGGGLVQAGGSLRLSCAASGIIFTDNAMGWSRQAPGKERELVAAISCRGGSTYYADSVKGRFTISRDNAKNTVYLQMNSLKPEDTAVYYCARYGTDHRLGYGYWGQGTQVTVSS,low polyreactivity
13,QVQLVESGGGLVQAGGSLRLSCAASGIIFTDTAMGGYTQPPGKVRELVATISWSTDNTYYADSVKGRFTISRDNAKNTVYLQMNSLKPEDTAVYYCAAEEFYAYWYQSDYWGQGTQVTVSS,low polyreactivity
14,QVQLVESGGGLVQAGGSLRLSCAASGIIFTGNAMGWYIQAPGKERELVAAITSGDTTNYADSVKGRFTISRDNAKNTVYLQMNSLKPEDSAVYYCAKELQVRQAGDYWGQGTQVTVSS,low polyreactivity
15,QVQLVESGGGLVQAGGSLRLSCAASGIIFTGYAMGWYRQAPGKERELVAAISGSGGRTYYSDSVKGRFTISRDNAKNTVYLQMNSLKPEDTAVYYCAAYRVSDYDYWGQGTQVTVSS,high polyreactivity
16,QVQLVESGGGLVQAGGSLRLSCAASGIIFTNYAMGWYRQAPGKERELVAAISSSSGTTYYADSVKGRFTISRDNAKNTDYLQMNSLKPEDTALYYCNAGRSWRRTHYDYWVQGTQVTVSS,high polyreactivity
17,QVQLVESGGGLVQAGGSLRLSCAASGIIFTNYGMGWYRQAPGKERELGAVISRRGGSTYYADSVKGRFTISRDNAKNTVYLQMNSLKPEDTAVYYCNTRTQGAKQYTGYDYWGQGTQVTVSS,high polyreactivity
18,QVQLVESGGGLVQAGGSLRLSCAASGIIFTNYSMGWYRQAPGKERELVAAISKGAGRTYYADSVKGRFTISRDNAKNTVYLQMNSLKPEDTAVYYCNKAKRSGGYPGVFSYDYWGQGTQVTVSS,high polyreactivity
19,QVQLVESGGGLVQAGGSLRLSCAASGIIFTSYAMGWYRQAPGKEREFVAGISVRGSSTYYADSVKGRFTISRDNAKNTVYLQMNSLKAEDTAVYYCAARTPSRYLYYEYDYWGQGTQVTVSS,low polyreactivity
20,QVQLVESGGGLVQAGGSLRLSCAASGIIFTTNAMGWYRQAPGKERELVATISTGGGTYYADSVKGRFTSSRDNAKNTVYLQMHSLKPEDTAVYYCAATPGWGPWIFDHSYVDFDYWGQGTQVTVSS,low polyreactivity
21,QVQLVESGGGLVQAGGSLRLSCAASGIIFVAYAMGWYRPAPGKERELVAAITKSGVRTYYADSVKGRFTISRGNAKNTVYLQMNSLKPEDTAVYYCAADRGVGVYYWGQGTQATVSS,high polyreactivity
22,QVQLVESGGGLVQAGGSLRLSCAASGIIFVEYAMGWYRQAPGKERELVARIRYSGGSTYYADSVKGRFTISRDNAKNTVYLQMNSLKPEDTAVYYCNALFPYIYDYWGQGTQVTVSS,low polyreactivity

row,Sequence,polyreactivity (PSR sort gate)
1,QVQLVESGGGLVQAGGSLRLSCAASGIIFVLYDMGWYRPAPGKERELVAAIDKSGGSTYYADSVKGRFTISRDNAKNTVYLQMNSLKPEDTAVYYCNARVVWRNPSYLKSSYDYWGQGTQVTVSS,low polyreactivity
2,QVQLVESGGGLVQAGGSLRLSCAASGIIFVRNAMGWYRQAPGKERELVAAISRSGGSTYYADSVKGRFTISRDNAKNTVYLQMNSLKPEDTAVYYCAAVMRLSSGYDYWGQGTQVTVSS,high polyreactivity
3,QVQLVESGGGLVQAGGSLRLSCAASGIIFVRNVMGWYRQAPGKERELVAAITNGGSTYYADSVKGRFTISRDNAKNTVYLQMNSLQPEDTAVYYCAALTGVRRRYYYWGQGTQVTVSS,high polyreactivity
4,QVQLVESGGGLVQAGGSLRLSCAASGIIFVRYTMGWYRQAPGKERELVAAISSSGGSTYYADSVKGRFTISRDNAKNTVYLQMNSLKPEDTAVYYCNAEIRDNNVGYYTDYDYWGQGTQVTVSS,high polyreactivity
5,QVQLVESGGGLVQAGGSLRLSCAASGIIFVSYAMGWYRQAPGKERELVAAITRRGSRTYYADSVKGRFTISRDNAKNTVYLQMNSLKPEDTAVYYCAADSQAARYHAYDYWGQGTQVTVSS,high polyreactivity
6,QVQLVESGGGLVQAGGSLRLSCAASGIIFVSYAMGWYRQAPGKERELVADITSGGRTYYADSVKGRFTISRDNAKNTVYLQMNSLKPEDTAGYYCAATYSYKGRWVWVYYWGQGTQVTVSS,high polyreactivity
7,QVQLVESGGGLVQAGGSLRLSCAASGIIFVVNDMGWYRQAPGKERELVADISDSGGSTNYADSVKGRFTISRDNAKNTVYLQMNSLKPEDTAVYYCNADGITSLPVPALDYWGQGTQVTVSS,low polyreactivity
8,QVQLVESGGGLVQAGGSLRLSCAASGIIFVWNAMGWYRQAPGKERALVAAITNGGSTYYADSVKGRFTISRDNAKTTVYLQMTSLKPEETAVDYCHVRYFFRFRDDYWGQGTQVTVSS,low polyreactivity
9,QVQLVESGGGLVQAGGSLRLSCAASGIIFVYYVMGWYRQAPGKERELVASIDGSGGSTNYADSVKGRFTISRDNAKNTVYLQMNSLKPEDTAVYYCNADNILYWSTLDYLGQGTQVTVSS,low polyreactivity
10,QVQLVESGGGLVQAGGSLRLSCAASGIIFWDNAMGWYRQAPGKERELVASINYSGGSTYYADSVKGRFTISRDNAKNTVYLQMNSLKPEDTAVYYCAARTVTLDDWDYAYDYWGQGTQVTVSS,low polyreactivity
11,QVQLVESGGGLVQAGGSLRLSCAASGIIFWDYAMGWSRQAPGKEREIVAAINTSGGTTTYADSVKGRFTISRDNAKNTVYLKMNSLKPEDTAVYYCAADTWGYYSYAYYYWGQGTQVTVSS,low polyreactivity
12,QVQLVESGGGLVQAGGSLRLSCAASGIIFWFYAMGWYRQAPGKERELVAVISWNGDSTYYADSVKGRFTISRDNAKNTVYLQMNSLKPEDTEVYYCSAETYLGVYGSEYDYWGQGTQVTVSS,low polyreactivity
13,QVQLVESGGGLVQAGGSLRLSCAASGIIFWLYTMGWYRQAPGKERELVAAITSGGSTYYADSVKGRFTISRDNAKNTVYLQMNSLKPEDTAVYDCAAVPRYRRWKYDYWGQGTQVTVSS,high polyreactivity
14,QVQLVESGGGLVQAGGSLRLSCAASGIIFWQYAMGWYRQAPGKERELVAAISRSGGNTYYADSVKGRFTISRDNAKNTVYLQMNSLKPEDTAVYYCNARRYLRGYGYGYWGQGTQVTVSS,high polyreactivity
15,QVQLVESGGGLVQAGGSLRLSCAASGIIFWYYAMGWYRQAPGKERELVAAISSGGSTTYADSVKGRFTISRDNAKNTVYLQMKSLKPEDTAVYYCAAVWLSLFKGWVDTHEYDYWGQGTQVTVSS,low polyreactivity
16,QVQLVESGGGLVQAGGSLRLSCAASGIIFYDNAMGWYRQAPGKERALVAALTWTGSSTYYADSVKGRFTISRDNAKNTVYLQMNSLKPEDTAVSYCNARASYGHQGRLGYARLYYWGQGTQVTVSS,high polyreactivity
17,QVQLVESGGGLVQAGGSLRLSCAASGIIFYDNAMGWYRQAPGKERELVATINYSGDSTYYADSVKGRFTISRDNAKNTVYLQMNSLKPADTAVYYCATDGAWQYYWVYSHEYWGQGTQVTVSS,low polyreactivity
18,QVQLVESGGGLVQAGGSLRLSCAASGIIFYGNAMGWYRQAPGKERELVAAISWSGSSTYYADSVKGRFTISRDNAKNTVYLQMNSLKPEDTAVYYCAADIPYQFVRDVYYWGQGTQVTLSS,high polyreactivity
19,QVQLVESGGGLVQAGGSLRLSCAASGIIFYGNAMGWYRQAPGKERELVARITGSDGRTYYADSVKGRFTISRDNAKNTVYLQMNSLKPEDTAVYYCNADRVRTAVYSYVYAYGIMNYWGQGTQVTVSS,low polyreactivity
20,QVQLVESGGGLVQAGGSLRLSCAASGIIFYGYAMGWYRQAPGKERELVAAIDSGVSTNYADSVKGRFTISRDNAKNTVYLQMNSLKPEDTAVYYCAVQPWTRDNGYDYWGQGTQVTVSS,low polyreactivity
21,QVQLVESGGGLVQAGGSLRLSCAASGIIFYGYAMGWYRQAPGKERELVAAISRSGGSTYYADSVKGRFTISRDNAKNTVYLQMNSLKPEDTAVYYCAAVAYPGKGNRGNYDYWGQGTQVTVSS,high polyreactivity
